Source: the nanobody polyreactivity screen of Harvey et al. (2022)

Assay: yeast display, Sf9 membrane polyspecificity reagent, FACS + sequencing; frameworks hold sequencing errors
Summary of the method: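 Galactose-induced (36–48 hours) yeast carrying a synthetic nanobody display library were exposed to 10% biotinylated, detergent-solubilized Sf9 membrane reagent at 4 °C for 1 hour. FACS followed streptavidin microbead enrichment, using low and high (top ~1%) gates for expression (anti-HA) and reagent binding (streptavidin). Colony PCR, MiSeq 2 × 250 sequencing and CDR-length filtering followed. Labels for polyreactivity reflect the gate of origin.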

Row | Sequence | polyreactivity (PSR sort gate)
1 | QVQLVESGGGLVQAGGSLRLSCAASGSILSKNAMGWYRQAPGKERELVAAITWSGGSTYYADSVKGRFTISRDNAKNTVYLQMNSLKPEDTAVYYCAADLDWSPHFGLPYDYWGQGTQVTVSS | low polyreactivity
2 | QVQLVESGGGLVQAGGSLRLSCAASGSILSTNDMGWYRQAPGKERELVAGISSGGSTNYADSVKGRFTISRDNAKNTVYLQMNSQKPEDTAVYYCATDVDKDPAEMDYWGQGTQVTVSS | low polyreactivity
3 | QVQLVESGGGLVQAGGSLRLSCAASGSILSTYAKGWYRQAPGKERELVASISSNAGSTYYADSVKGRFTISRDNAKNTVYLQMNSLKPEDTAVYYCNKVYGGGTYDYWGQGTQVTVSS | low polyreactivity
4 | QVQLVESGGGLVQAGGSLRLSCAASGSILSTYAMGWYRQAPGKERELVASISSNAGSTYYADSVKGRFTISRDNAKNTVYLQMNSLKPEDTAVYYCNKDGKYHRVLYDYWGQGTQVTVSS | low polyreactivity
5 | QVQLVESGGGLVQAGGSLRLSCAASGSILSYYAMGWYRQAPGKERELVAAISKSGGRTYYADSVKGRFTISRDNAKNTVYLQMNSLKPEETAVYYCAAEIVVFYSEGQRNTFYYWGQGTQVTVSS | high polyreactivity
6 | QVQLVESGGGLVQAGGSLRLSCAASGSILSYYAMGWYRQAPGKERELVAAISKTGGRTYYADSVKGRFTISRDNAKNTVYLQMNSLKPEDTAVYYCAAVDTIGRYDYWGQGTQVTVSS | high polyreactivity
7 | QVQLVESGGGLVQAGGSLRLSCAASGSILTAYAMGWYRQAPGKERELVAASNFSGDNTYYADSEKGRFTISRDNAKNTVYLQMNSLKPEDTAVYYCNADGRYAYVWYDYWGQGTQVTVSS | low polyreactivity
8 | QVQLVESGGGLVQAGGSLRLSCAASGSILVAYAMGWYRQAPGKERELVAAISSVGNTYYADSVKGRFTISRDNAKNTVYLQMNSLIPEDTAVYYCNAVYRVWYAEWSTVGSPHDYWGQGTQVTVSS | low polyreactivity
9 | QVQLVESGGGLVQAGGSLRLSCAASGSILVAYAMGWYRQAPGKERELVAAITQGGGSTYYADSVKGRFTISRDNAKNTVYLQMNSLKPEDTAVYYCNVGANVYLLYFPSRGGVYDYGYWGKGTQVTVSS | low polyreactivity
10 | QVQLVESGGGLVQAGGSLRLSCAASGSILVGNAMGWYRQAPGKERELVAAISKSGSSTHYADSVKGRFTISRDNAKNTVYLQMNSLKPEDTAVYYCNAVGRVYRAKYDYWGQGTQVTVSS | high polyreactivity
11 | QVQLVESGGGLVQAGGSLRLSCAASGSILYFYAMGWYRQAPGKEREFVAAISRSGGSTRYADSVKGRFTISRDNAKNTVYLQMNSLKPEDTAVYYCAATSRSYNDYDYWGQGTQVTVSS | high polyreactivity
12 | QVQLVESGGGLVQAGGSLRLSCAASGSILYGNAMGWYRQAPGKERELVAAITTSGGRTYYADSVKGRFTISRDNAKNTVYLQLTSLKPEDTAVYYCAAASPTPVNWSGRDYYYWGQGTQVTVSS | high polyreactivity
13 | QVQLVESGGGLVQAGGSLRLSCAASGSILYINAMGWYRQAPGKERELVAAITYSGGSTYYADSVKGRFTISRDNAKNTVYLQMNSLKPEDTAVYYWAADAVVAGRYDGHDYWGQGTQVTVSS | low polyreactivity
14 | QVQLVESGGGLVQAGGSLRLSCAASGSILYRYAMGWYRQAPGKERELVAAITRSGGSTYYADSVKGRFTISRDNAKNTVYLQMNSLKPEDTAVYYCARQRKVSAHSIEMDYWGQGTQVTVSS | low polyreactivity
15 | QVQLVESGGGLVQAGGSLRLSCAASGSILYRYAMGWYRQAPGKERELVAAITRSGGSTYYADSVKGRFTITRDNAKNTVYFQMNSLKPEDTAGYYCARQRKVSAHSIEMDYWGQGTQVTVSS | low polyreactivity
16 | QVQLVESGGGLVQAGGSLRLSCAASGSILYTNAMGWYRQAPGKERELVAAITTSGASTYYADSVKGRFTISRDNAKNTVYLQMNSLKPEDTAVYYCAAPSRYRYYWGNYWGQGTQVTVSS | high polyreactivity
17 | QVQLVESGGGLVQAGGSLRLSCAASGSILYVYAMGWYRQAPGKERELVAAISNRDGSTYYADSVKGRFTISRDNAKNTVYLQMNSLKPEDTAVYYCNADGYGDYSFLKYRFEYDYWGQGTQVTVSS | low polyreactivity
